T1: IL-2Rβ-his (Acro CD2-H5221) (UniProt P14784 27-239)
T1 construct: also called CD122; not shown: his tag
T1 sequence (looked up): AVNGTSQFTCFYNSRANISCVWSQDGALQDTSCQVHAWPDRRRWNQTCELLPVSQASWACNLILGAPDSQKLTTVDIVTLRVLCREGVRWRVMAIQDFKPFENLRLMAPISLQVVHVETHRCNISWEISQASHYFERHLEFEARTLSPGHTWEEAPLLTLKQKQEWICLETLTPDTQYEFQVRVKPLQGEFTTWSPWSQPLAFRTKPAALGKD

T2: IL-2Rβ and common γ chain on HEK-Blue CD122/132 cells (InvivoGen hkb-il2bg) (UniProt P14784 27-551; P31785 23-369, limits assumed)
T2 sequence (looked up) 1: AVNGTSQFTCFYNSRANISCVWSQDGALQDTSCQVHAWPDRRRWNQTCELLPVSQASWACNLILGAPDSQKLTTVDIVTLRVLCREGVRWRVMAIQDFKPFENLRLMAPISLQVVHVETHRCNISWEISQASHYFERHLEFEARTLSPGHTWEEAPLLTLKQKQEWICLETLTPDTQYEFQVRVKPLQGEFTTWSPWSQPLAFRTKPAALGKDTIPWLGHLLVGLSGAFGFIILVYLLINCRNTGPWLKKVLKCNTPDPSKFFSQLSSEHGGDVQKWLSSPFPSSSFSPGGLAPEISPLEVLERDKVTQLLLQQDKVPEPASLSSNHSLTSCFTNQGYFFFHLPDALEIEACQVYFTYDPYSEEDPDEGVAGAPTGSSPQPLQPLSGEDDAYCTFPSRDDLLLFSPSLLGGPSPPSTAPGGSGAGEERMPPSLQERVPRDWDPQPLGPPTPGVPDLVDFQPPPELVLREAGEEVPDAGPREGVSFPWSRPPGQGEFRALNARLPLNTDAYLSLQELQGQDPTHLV
T2 sequence (looked up) 2: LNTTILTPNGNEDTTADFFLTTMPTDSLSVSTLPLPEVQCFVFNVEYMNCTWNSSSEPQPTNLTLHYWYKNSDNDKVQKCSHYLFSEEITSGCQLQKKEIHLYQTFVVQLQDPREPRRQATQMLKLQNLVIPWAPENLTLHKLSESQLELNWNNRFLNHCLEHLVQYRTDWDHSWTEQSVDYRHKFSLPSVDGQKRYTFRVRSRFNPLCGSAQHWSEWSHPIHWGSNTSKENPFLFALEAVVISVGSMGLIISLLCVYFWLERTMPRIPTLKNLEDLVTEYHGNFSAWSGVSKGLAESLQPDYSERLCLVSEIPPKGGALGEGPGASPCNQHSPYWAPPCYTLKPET

B1: GIC-982C1 (IL-2/IL-15) (Fc fusion)
chain: GSAESKYGPPCPPCPAPEAAGGPSVFLFPPKPKDQLMISRTPEVTCVVVDVSQEDPEVQFNWYVDGVEVHNAKTKPREEQFNSTYRVVSVLTVLHQDWLNGKEYKCKVSNKGLPSSIEKTISKAKGQPREPQVYTLPPSQEEMTKNQVSLTCLVKGFYPSDIAVEWESNGQPENNYKTTPPVLDSDGSFFLYSRLTVDKSRWQEGNVFSCSVLHEALHNHYTQKSLSLSLGGGGGSGGGGSITCPPPMSVEHADIWVKSYSLYSRERYICNSGFKRKAGTSSLTECVLNKATNVAHWTTPSLKCIRGGGGSGGGGSGGGGSGGGGSAPTSSSTKKTQLQLEHLLLDLQMILNGSMHIDATLYTESDVHPSCKVTAMKCFLLELQVISLESKNFHLRPRDLISNINVIVLELKGSNGNVTESGCKECEELEEKNIVEFLNRWITFCQSIISTLT
B2: GIC-982C14 (IL-2/IL-15v7) (S76N) (Fc fusion)
chain: B1 chain with S402N
B3: GIC-982C15 (IL-2/IL-15v8) (S76K) (Fc fusion)
chain: B1 chain with S402K
B4: GIC-982C3 (IL-2/IL-15v2) (L74F) (Fc fusion)
chain: B1 chain with L400F
notes: the entry already holds the change
B5: GIC-982C6 (IL-2/IL-15v5) (V80L) (Fc fusion)
chain: B1 chain with V406L
notes: as for B4
B6: GIC-982C4 (IL-2/IL-15v3) (S76D) (Fc fusion)
chain: B1 chain with S402D
notes: as for B4
B7: GIC-982C12 (IL-2/IL-15v11) (D73E, L74F, S76D, N77D, V80L) (Fc fusion)
chain: B1 chain with D399E, L400F, S402D, N403D, V406L
notes: the entry already holds the changes
B8: GIC-982C5 (IL-2/IL-15v4) (N77D) (Fc fusion)
chain: B1 chain with N403D
notes: as for B4
B9: GIC-982C2 (IL-2/IL-15v1) (D73E) (Fc fusion)
chain: B1 chain with D399E
notes: as for B4
B10: GIC-982C13 (IL-2/IL-15v6) (S76E) (Fc fusion)
chain: B1 chain with S402E

Experimental findings from EP4772613A1 (GI Cell, Inc., dated 2026) are described below.

In general, Kd refers to the concentration at which binding is half-saturated. A lower Kd goes with higher affinity. Usually koff stands for the first-order rate constant of dissociation. As usually defined, the kon is the second-order rate constant of association. Lower therefore signals slow association.

Positions count from the first letter of the chain named. Names and notes keep the numbering of the source.

The first experiment concerns the target T1, IL-2Rβ-his (Acro CD2-H5221). In words: Octet BLI; IL-2Rβ-his on Ni-NTA sensor, analyte 2,000 to 31.25 nM.
Molecule B1 had a Kd of 387 nM, a koff of 0.000335 s⁻¹ and a kon of 866 M⁻¹ s⁻¹.
Regarding B2, the Kd is 327 nM, the koff was determined as 0.000223 s⁻¹ and the on-rate (kon) was determined as 686 M⁻¹ s⁻¹.
For B3, in that order: 178 nM, 0.000476 s⁻¹ and 2670 M⁻¹ s⁻¹.
For B4, in that order: 302 nM, 0.000481 s⁻¹ and 1590 M⁻¹ s⁻¹.
B5: binding was characterised by a dissociation constant (Kd) of 386 nM, the koff amounted to 0.000435 s⁻¹ and the on-rate (kon) worked out at 1130 M⁻¹ s⁻¹.
In the same order, the values of B6 are 144 nM, 0.000338 s⁻¹ and 2350 M⁻¹ s⁻¹.
For B7, binding was put at a Kd of 265 nM, the koff is 9.11e-05 s⁻¹ and the kon is 344 M⁻¹ s⁻¹.
For B8, in that order: 1290 nM, 0.000313 s⁻¹ and 242 M⁻¹ s⁻¹.
For B9, in that order: 215 nM, 0.000148 s⁻¹ and 686 M⁻¹ s⁻¹.
For B10, in that order: 105 nM, 0.000204 s⁻¹ and 1930 M⁻¹ s⁻¹.

A further experiment has as its target T2, IL-2Rβ and common γ chain on HEK-Blue …. Put plainly: cell-based or functional assay.
In the case of B1, the “EC50 (ng/ml), STAT5 activity, HEK-Blue CD122/132 reporter cells” value stood at 1730 ng/mL.
The same measure, in the same setting: the figure for B2 is 997 ng/mL.
Still for that read-out and setting: the figure for B3 is 134 ng/mL; for B4 it is 9740 ng/mL.
Still for that read-out and setting: for B5 the value was 723 ng/mL; for B6, 255 ng/mL; for B9, 1080 ng/mL.
In the case of B10, the “EC50 (ng/ml), STAT5 activity, HEK-Blue CD122/132 reporter cells” value was determined as 1390 ng/mL.
